Changes are numbered by the printed parent chain.
B1: DART-A-M3 (bispecific antibody)
chain 1: DFVMTQSPDSLAVSLGERVTMSCKSSQSLLNSGNQKNYLTWYQQKPGQPPKLLIYWASTRESGVPDRFSGSGSGTDFTLTISSLQAEDVAVYYCQNDYSYPYTFGQGTKLEIKGGGSGGGGEVQLVESGGGLVQPGGSLRLSCAASGFTFSTYAMNWVRQAPGKGLEWVGRIRSKYNNYATYYADSVKDRFTISRDDSKNSLYLQMNSLKTEDTAVYYCVRHGNFINSYVSWFAYWGQGTLVTVSSGGCGGGKVAALKEKVAALKEKVAALKEKVAALKE
chain 2: QAVVTQEPSLTVSPGGTVTLTCRSSTGAVTTSNYANWVQQKPGQAPRGLIGGTNKRAPWTPARFSGSLLGGKAALTITGAQAEDEADYYCALWYSNLWVFGGGTKLTVLGGGGSGGGGEVQLVQSGAELKKPGASVKVSCKASGYTFTDYYMKWVRQAPGQGLEWIGDIIPSNGATFYNQKFKGRVTITVDKSTSTAYMELSSLRSEDTAVYYCARSHLLRASWFAYWGQGTLVTVSSGGCGGGEVAALEKEVAALEKEVAALEKEVAALEK
B2: DART-A-M6 (bispecific antibody)
chain 1: B1 chain 1 with I226G, Y229Q
chain 2: B1 chain 2
B3: DART-A-M4 (bispecific antibody)
chain 1: B1 chain 1 with I226G, Y229A
chain 2: B1 chain 2
B4: DART-A-M11 (bispecific antibody)
chain 1: B1 chain 1 with I226G, W232F
chain 2: B1 chain 2

molecular target: CD3 on T-cells (UniProt P07766); experiment: cell-based or functional assay
Sequence (P07766 23-207): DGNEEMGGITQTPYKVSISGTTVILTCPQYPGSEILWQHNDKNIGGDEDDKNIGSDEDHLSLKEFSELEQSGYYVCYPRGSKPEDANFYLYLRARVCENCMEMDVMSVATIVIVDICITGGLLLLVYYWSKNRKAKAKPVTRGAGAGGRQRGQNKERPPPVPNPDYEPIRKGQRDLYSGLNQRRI

Binder | EC50 of cytolysis at 18 hours (CTL assay, Pan-T-cells and MOLM-13, E:T = 5:1) [ng/mL] | EC50 of cytolysis at 42 hours (CTL assay, Pan-T-cells and MOLM-13, E:T = 5:1) [ng/mL] | R: ratio of 18 hour EC50 to DART-A-WT (CTL assay, Pan-T-cells and MOLM-13, E:T = 5:1) | R: ratio of 42 hour EC50 to DART-A-WT (CTL assay, Pan-T-cells and MOLM-13, E:T = 5:1) | max % CytoTox at 18 hours (CTL assay, Pan-T-cells and MOLM-13, E:T = 5:1) [%] | max % CytoTox at 42 hours (CTL assay, Pan-T-cells and MOLM-13, E:T = 5:1) [%]
B1 | 0.108 | 0.006 | 1.4 | 2.3 | 39.7 | 28.6
B2 | 0.162 | 0.011 | 2.1 | 3.9 | 41.9 | 29.5
B3 | 0.176 | 0.011 | 2.2 | 3.9 | 41.7 | 29.8
B4 | 0.223 | 0.016 | 2.8 | 5.8 | 48.5 | 32.4

molecular target: CD3 (as used for the BIACORE kinetics of Table 11) (UniProt P07766); experiment: SPR (BIACORE)
Sequence (P07766 23-126): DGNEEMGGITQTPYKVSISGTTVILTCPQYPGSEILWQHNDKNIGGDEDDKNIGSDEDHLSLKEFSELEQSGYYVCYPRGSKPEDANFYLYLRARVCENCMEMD

Binder | Kd [nM] | R (KD ratio to DART-A-WT) | R (ka ratio to DART-A-WT) | R (kd ratio to DART-A-WT) | koff [s⁻¹] | kon [M⁻¹ s⁻¹]
B1 | 18.5 | 2.3 | 0.9 | 2 | 0.0083 | 449000
B2 | 28.8 | 3.5 | 1.4 | 4.9 | 0.0201 | 699000
B3 | 25.7 | 3.1 | 1.6 | 5 | 0.0203 | 790000
B4 | 19.2 | 2.4 | 2.8 | 6.5 | 0.0267 | 1.39e+06

— patent US20240043537A1
